Tests used:
[1] = target: T1, hSIRP-VγC1βC2β (human, UniProt O00241 30-398); assay: CELISA, CHO-K1 transfectants, domain exchange study
T1 chain: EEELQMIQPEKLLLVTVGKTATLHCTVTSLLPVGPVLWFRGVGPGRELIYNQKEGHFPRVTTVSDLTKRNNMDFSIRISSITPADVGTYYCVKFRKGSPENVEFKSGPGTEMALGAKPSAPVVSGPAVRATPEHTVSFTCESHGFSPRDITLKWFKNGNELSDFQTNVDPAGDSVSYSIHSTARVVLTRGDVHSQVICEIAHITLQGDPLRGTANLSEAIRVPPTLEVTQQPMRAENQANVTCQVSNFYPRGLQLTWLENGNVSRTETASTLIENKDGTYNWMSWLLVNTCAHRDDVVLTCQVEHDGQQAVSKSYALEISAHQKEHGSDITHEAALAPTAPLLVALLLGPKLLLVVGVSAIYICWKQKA
Excerpt: (§1) Based on the fold of SIRPα/β1/γ, the extracellular region can be subdivided into three separate domains: the Ig-like (immunoglobulin-like) V-type (IgV), Ig-like C1-type (IgC1), and Ig-like C2-type (IgC2) domain. The IgV domain is also known as the ligand-binding N-terminal domain of SIRPα and SIRPγ (which binds to CD47). The human SIRPβ1/γ mutants were designed based on the full length hSIRPβ1 sequence (SEQ ID NO: 38) and each individual Ig-like domain was substituted for the equivalent domain of human SIRPγ (SEQ ID NO: 40). […] Binding of hSIRPα.40A to the exchange mutants was tested using CELISA. To this end, CHO-K1 cells were transiently transfected, using Lipofectamine 2000, with the pCI-neo vectors encoding hSIRPαV1, hSIRPαV2, hSIRPβ1, hSIRP-VγC1βC2β, hSIRP-VβC1γC2β, and hSIRP-VβC1βC2γ, respectively. The transfected cells were cultured at 37° C., 5% CO₂ and 95% humidity in medium (DMEM-F12 (Gibco) with 5% New Born Calf serum (Biowest) and Pen/Strep (Gibco)) until confluent. Subsequently, cells were trypsinized and seeded in 96-well flat-bottom tissue culture plates and cultured at 37° C., 5% CO₂ and 95% humidity in culture medium until confluent. Then, culture medium was removed and cells were incubated for 1 hour at 37° C., 5% CO₂ and 95% humidity with hSIRPα.40A, hSIRPα.50A, and anti-hSIRPα clone SE5A5 antibodies. Next, cells were washed with PBS-T and incubated for 1 hour at 37° C., 5% CO₂ and 95% humidity with goat-anti-mouse IgG-HRP conjugate (Southern Biotech). After that, cells were washed three times with PBS-T and anti-hSIRPα immunoreactivity was visualized with TMB Stabilized Chromogen (Invitrogen). Reactions were stopped with 0.5 M H₂SO₄ and absorbances were read at 450 and 610 nm.

[2] = target: T2, hSIRP-VβC1γC2β (human, UniProt O00241 30-398); assay: CELISA, CHO-K1 transfectants, domain exchange study; nd = not detected
T2 chain: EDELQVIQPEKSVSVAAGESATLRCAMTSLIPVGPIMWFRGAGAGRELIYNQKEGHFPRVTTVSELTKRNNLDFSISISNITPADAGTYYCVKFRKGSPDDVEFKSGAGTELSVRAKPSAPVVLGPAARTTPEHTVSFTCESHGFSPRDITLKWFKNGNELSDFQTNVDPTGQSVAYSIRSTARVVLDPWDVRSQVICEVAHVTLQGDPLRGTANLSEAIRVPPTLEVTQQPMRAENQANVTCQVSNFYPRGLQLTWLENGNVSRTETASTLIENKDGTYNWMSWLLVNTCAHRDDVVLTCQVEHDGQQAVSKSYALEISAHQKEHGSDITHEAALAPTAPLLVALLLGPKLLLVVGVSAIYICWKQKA
Excerpt: as §1, with “Then, culture medium was removed and cells were incubated for 1 hour at 37° C., 5% CO₂ and 95% humidity with hSIRPα.40A, hSIRPα.50A, and anti-hSIRPα clone SE5A5 antibodies. Next, cells were washed with PBS-T and incubated for 1 hour at 37° C., 5% CO₂ and 95% humidity with goat-anti-mouse IgG-HRP conjugate (Southern Biotech). After that, cells were washed three times with PBS-T and anti-hSIRPα immunoreactivity was visualized with TMB Stabilized Chromogen (Invitrogen).” left out

[3] = target: T3, hSIRP-VβC1βC2γ (human, UniProt O00241 30-398); assay: as above
T3 chain: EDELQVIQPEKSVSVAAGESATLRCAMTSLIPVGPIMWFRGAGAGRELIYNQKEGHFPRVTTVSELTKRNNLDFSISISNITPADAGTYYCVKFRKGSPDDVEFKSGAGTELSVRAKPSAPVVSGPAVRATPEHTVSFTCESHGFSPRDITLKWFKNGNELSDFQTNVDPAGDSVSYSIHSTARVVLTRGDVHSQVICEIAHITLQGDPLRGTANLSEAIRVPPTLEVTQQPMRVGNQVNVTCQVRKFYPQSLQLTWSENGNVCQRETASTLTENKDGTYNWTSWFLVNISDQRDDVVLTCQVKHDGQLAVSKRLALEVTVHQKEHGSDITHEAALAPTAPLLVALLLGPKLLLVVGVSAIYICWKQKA
Excerpt: as §1, with “Then, culture medium was removed and cells were incubated for 1 hour at 37° C., 5% CO₂ and 95% humidity with hSIRPα.40A, hSIRPα.50A, and anti-hSIRPα clone SE5A5 antibodies. Next, cells were washed with PBS-T and incubated for 1 hour at 37° C., 5% CO₂ and 95% humidity with goat-anti-mouse IgG-HRP conjugate (Southern Biotech). After that, cells were washed three times with PBS-T and anti-hSIRPα immunoreactivity was visualized with TMB Stabilized Chromogen (Invitrogen).” left out

[4] = target: T4, hSIRPα expressed on primary human cells (human, UniProt P78324 31-504); assay: flow cytometry on CD14+ enriched monocytes, human donor 1, AF647 goat-anti-mouse IgG
T4 construct: whole, on cells; also called hSIRPα on primary human CD14+ monocytes; on primary human granulocytes
Procedure: Next, the binding of hSIRPα.40A to hSIRPα expressed on primary human CD14⁺ monocytes was investigated. In addition, the ability of hSIRPα.40A to block the interaction between hSIRPα and recombinant hCD47/Fc-protein was assessed. For this purpose, CD14+ monocytes were isolated from Ficoll-purified human peripheral blood mononuclear cells (PBMCs) using RosetteSep human monocyte enrichment cocktail (Stemcell). The percentage of monocytes present after the enrichment was determined by flow cytometry on the FACSVerse (BD Biosciences) based on CD14 staining using an APC-Cy7-conjugated mouse-anti-human CD14 detection antibody (BD Biosciences). […] After this labeling procedure, cells were washed two times, resuspended in PBS/1% BSA containing 0.1 μg/mL DAPI (BioLegend), and analysed by flow cytometry on the FACSVerse (BD Biosciences). Data were processed and analysed with FlowJo V10 software (FlowJo, LLC).
To assess the blocking ability of hSIRPα.40A, CD14+ enriched monocytes cells were seeded in 96-well round bottomed tissue culture plates and incubated for 45 minutes with FcR Blocking Reagent (Miltenyi Biotec) and hSIRPα.40A antibody (20 μg/mL and dilutions thereof) in PBS/1% BSA at 4° C. […] After this labeling procedure, cells were washed two times, resuspended in PBS/1% BSA containing 0.1 μg/mL DAPI (BioLegend), and analysed by flow cytometry on the FACSVerse (BD Biosciences). […]

T4 sequence (P78324 31-504): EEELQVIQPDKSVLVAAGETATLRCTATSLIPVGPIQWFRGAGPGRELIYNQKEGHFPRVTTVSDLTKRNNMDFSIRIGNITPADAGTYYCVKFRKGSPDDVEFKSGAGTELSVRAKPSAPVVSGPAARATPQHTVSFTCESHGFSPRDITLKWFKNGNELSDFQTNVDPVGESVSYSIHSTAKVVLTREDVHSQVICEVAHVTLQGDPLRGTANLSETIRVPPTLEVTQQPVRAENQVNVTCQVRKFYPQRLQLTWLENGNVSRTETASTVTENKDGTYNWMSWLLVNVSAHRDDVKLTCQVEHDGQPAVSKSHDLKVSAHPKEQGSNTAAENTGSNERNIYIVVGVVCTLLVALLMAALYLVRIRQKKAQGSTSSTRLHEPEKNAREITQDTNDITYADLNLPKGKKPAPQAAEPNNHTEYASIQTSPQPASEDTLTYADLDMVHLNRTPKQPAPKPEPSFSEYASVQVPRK

B1: hSIRPα.50A (antibody, V domains shown)
VH: QVQLQQSGPELVKPGASVRISCKASGFTFTNYYIHWVKQRPGQGLEWIGWIYPGNVNTKYNEKFKAKATLTADKSSTTAYMQLSSLASEDSAVYFCARPTIIATDFDVWGAGTTVTVSS
VL: DIVMTQSHKFMSTSVGDRVNITCKASQGVGTAVGWYQQKPGQSPRLLIYWASTRHTGVPDRFTGSGSGTDFSLAISNVQSEDLADYFCQQYSTYPFTFGGGTNLEIK
notes: light chain constant domain not tied; also called mouse hSIRPα.50A; hSIRPα.50A.mIgG1
[1]
  EC50: 2.52 nM
[2]
  binding result: no binding
[3]
  binding result: no binding

B2: hSIRPα.40A (antibody, mouse IgG1, kappa, V domains shown)
VH: EVQFQQSGTVLARPGTSVKMSCKASGSTFTSYWMHWVKQGPGQGLQWIGAIYPVNNDTTYNQKFKGKAELTVVTSTSTAYMEVSSLTNEDSAVYYCTRSFYYSLDAAWFVYWGQGTLVTVSA
VL: DIQMTQSPSSLSASLGERVSLTCRASQDIGSRLNWLQQEPDGTIKRLIYATSSLDSGVPKRFSGSRSGSDYSLTISGLESEDFVDYYCLQYASSPFTFGGGTKLEINR
notes: mouse antibody, full chains without signal peptide; also called mouse hSIRPα.40A
[4]
  EC50 (read off the curve): ~1 nM

Reference: US20180312587A1 (ADURO BIOTECH HOLDINGS EUROPE B V, published 2018)
